From patent US20190177416A1 (NANOMAB TECHNOLOGY, published 2019) come the findings set out here.

Some results are limits rather than exact numbers.

Assay [1] has as its target T1, human PD-L1 protein (coated antigen) (human, UniProt Q9NZQ7 19-238, limits assumed).
T1 construct: Construct not described; also called PD-L1 antigen; antigenic protein PD-L1
Briefly: PE-ELISA on coated PD-L1. A general note: An ELISA detects its analyte on a solid surface through an enzyme-linked reagent.

The target of assay [2] is T1, human PD-L1 protein (coated antigen). Nature of the assay: ELISA, purified nanobody 10 ug/mL, coated PD-L1 against coated PD-L2. As to the method: (§1) (1) Coated antigenic proteins PD-L1 and PD-L2: 0.5 μg per well (5 μg/mL, 100 μL), packaged NaHCO₃ (100 mM, pH8.2) was used as a blank control and overnight at 4° C. (2) Wash the cells three times with PBST the next day, add 200 μL of 1% BSA to block at room temperature for 2 hours. (3) Each purified nanobody was diluted to 10 μg/mL, and 100 pt of each of the purified nanobodies was incubated with the coated PD-L1, PD-L2 and the blank control group, and reacted at room temperature for 1 hour. (4) Unbound antibody was washed away with PBST, and 100 μL of mouse anti-HA tag antibody (1:2000 dilution) was added and placed at room temperature for 1 hour. (5) Unbound antibody was washed away with PBST, and anti-mouse alkaline phosphatase conjugate (1:2000 dilution) was added and placed at room temperature for 1 hour. (6) Wash the unbound antibody with PBST, add alkaline phosphatase coloring solution, and read the absorbance at 405 nm on an ELISA apparatus. The specificity of the nanobody was judged based on the absorption value.

Assay [3] deals with T2, PD-L2 (coated antigenic protein) (UniProt Q9BQ51 20-220, limits assumed).
T2 sequence (looked up): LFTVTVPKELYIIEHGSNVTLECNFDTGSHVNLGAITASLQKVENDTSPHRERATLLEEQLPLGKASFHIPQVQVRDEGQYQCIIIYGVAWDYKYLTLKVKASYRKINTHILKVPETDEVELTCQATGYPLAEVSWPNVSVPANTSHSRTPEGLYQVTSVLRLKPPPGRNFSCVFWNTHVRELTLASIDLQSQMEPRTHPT
Briefly: ELISA, purified nanobody 10 ug/mL on coated PD-L2, anti-HA detection. As for the experimental part:
as §1

In assay [4] the target is T3, PD-L1 on 293F cells transiently transfected with the PD-L1 full-length gene (UniProt Q9NZQ7 19-290, limits assumed).
T3 construct: whole, on cells; also called PD-L1 transient cells
Nature of the assay: flow cytometry, 293F cells transiently transfected with PD-L1 or PD-L2. As for the experimental part: In addition, the specificity of the PD-L1 nanobody was detected by flow cytometry. The PD-L1 full-length gene and the PD-L2 full-length gene were transiently transfected in a conventional 293F cell, and a nano-antibody (SEQ ID NO.: 1) of PD-L1 was selected for incubation for flow cytometry.

Assay [5] deals with T1, human PD-L1 protein (coated antigen). Nature of the assay: ELISA, purified nanobody 10 ug/mL on coated PD-L1, anti-HA detection. As to the method:
as §1

Assay [6] has the same target. Nature of the assay: PE-ELISA, crude extract on coated PD-L1. A digest of the protocol: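 Phage clones were expressed with 1 mmol IPTG at 28° C overnight, and crude periplasmic antibody was applied to PD-L1-coated plates for 1 h at room temperature. Detection used anti-HA, then an alkaline phosphatase conjugate, read at 405 nm. A sample/control OD ratio above 3 marked a positive clone.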

T1 sequence (Q9NZQ7 19-238 limits assumed): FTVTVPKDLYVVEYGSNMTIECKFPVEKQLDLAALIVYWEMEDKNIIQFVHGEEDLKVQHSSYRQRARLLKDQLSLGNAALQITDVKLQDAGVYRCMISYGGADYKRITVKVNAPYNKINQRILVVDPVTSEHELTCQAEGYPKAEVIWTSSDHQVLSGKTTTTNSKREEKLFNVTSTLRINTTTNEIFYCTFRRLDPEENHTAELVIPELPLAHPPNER
T3 sequence (Q9NZQ7 19-290 limits assumed): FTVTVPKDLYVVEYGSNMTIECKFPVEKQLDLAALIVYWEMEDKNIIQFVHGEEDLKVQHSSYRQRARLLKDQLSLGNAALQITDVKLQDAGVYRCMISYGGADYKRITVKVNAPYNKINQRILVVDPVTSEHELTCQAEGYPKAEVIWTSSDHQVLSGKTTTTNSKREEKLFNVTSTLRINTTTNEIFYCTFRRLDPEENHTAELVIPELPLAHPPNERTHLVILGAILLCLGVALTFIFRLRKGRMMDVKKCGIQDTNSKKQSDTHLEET

B1: SEQ ID NO 141 (VHH)
VHH: QVQLQESGGGSVQAGGSLRLSCTAPGFTSNTCAMAWFRQAPGKEREFVSSMSTVGSTRFADSVKGRFTISKDEAKDTVYLQMNSLKPEDTAMYFCKTYACRECTGRYCRTAPDAWGQGTQVTVSS
notes: pMECS-expressed; also called VHH numbered 141
With B1, the binding result in assay [1] is reported as “binds”.

B2: SEQ ID NO 143 (VHH)
VHH: QVQLQESGGGSVQAGGSLRLSCTAPGFTSNTCAMAWYRQAPGKEREFVSSISTVRTTAYADSVKGRFTISKDEAKATVYLQMNSLKPEDTAMYFCKSYACRDCIGRYCRTAPDAWGQGTQVTVSS
notes: pMECS-expressed; also called VHH numbered 143
For the molecule B2, the binding result in assay [1] is reported as “binds”.

B3: SEQ ID NO 139 (VHH)
VHH: QVQLQESGGGSVQAGGSLRLSCVASGYTNCRYDMSWYRQAPGKEREFVSSIDSEGVARHADSVKGRFGISQDNAKSTLYLQMNSLKPEDTAVYYCKTDYITCRFGSWSDSTWGQGTQVTVSS
notes: pMECS-expressed; also called VHH numbered 139
In the case of B3, the binding result in assay [1] is “binds”.

B4: SEQ ID NO 140 (VHH)
VHH: QVQLQESGGGSVQAGGSLRLSCVASGYTNCRYDMSWYRQAPGKEREFVSSIDSEGVARHADSVKGRFGISQDNAKSTLYLQMNSLKPEDTAMYYCKMDYIRCRFGSWSESTWGQGTQVTVSS
notes: pMECS-expressed; also called VHH numbered 140
For the molecule B4, in assay [1], the binding result is on record as “binds”.

B5: SEQ ID NO 149 (VHH)
VHH: QVQLQESGGGLVQAGGSLRLSCTASGFTFDDYSMGWFRQAPGKEREGISCIDWSGGRTNYGDSVKGRFTISRDNAKNTLYLQMNSLKPEDTAMYYCAANSAYSSCSLSTTHYKYWGQGTQVTVSS
notes: pMECS-expressed; also called VHH numbered 149
On to B5, for which, in assay [1], the binding result is on record as “binds”.

B6: SEQ ID NO 148 (VHH)
VHH: QVQLQESGGGSVQAGGSLRLSCAASGYSYNIDYMAWFRQAPGKEREGVAAIYTGSRRTYYSDSVKGRFAISQDNADNTVYLQMNALKPEDTAMYFCAALVSRPGRSWDKNEYRYWGQGTQVTVSS
notes: pMECS-expressed; also called VHH numbered 148
Turning to B6, the binding result in assay [1] is “binds”.

B7: SEQ ID NO 1 (VHH)
VHH: QVQLQESGGGSVQTGGSLRLSCTASTSIYSNNYMAWFSQSPGKGREGVAAVYMDDGRPYYADSVKGRFTISLDSAKNTMYLQMNSLKPEDTAMYYCAAAPGPLSRNYWYTSANYDYWGQGTQVTVSS
notes: pMECS-expressed; also called anti-PD-L1 nanobody No. 1; VHH numbered 1
As for B7, the “OD ratio (PD-L1/PD-L2)” value in assay [2] was determined as 32.2. Also, the figures for the “ELISA absorbance (A405 nm)” value in assay [3] and in assay [5] were 0.118 A405 nm and 3.8 A405 nm, respectively. In addition, the “fold difference (PD-L1 transient cells against PD-L2 transient cells)” value in assay [4] is at least 550 times. The “OD ratio (experimental group (A405 nm)/control group (A405 nm))” value in assay [6] was over 20.

B8: SEQ ID NO 150 (VHH)
VHH: QVQLQESGGGLVQPGGSLRLSCAASGFTFSAYGMSWVRQAPGKGFEWVSTINSGGGTTFYADSVKGRFTISRDNAKNTLYLQLNSLRTEDTAMYYCRRCADIYCSLSGGWTGQGTQVTVSS
notes: pMECS-expressed; also called VHH numbered 150
In the case of B8, in assay [1], the binding result is “binds”.

B9: SEQ ID NO 142 (VHH)
VHH: QVQLQESGGGSVQTGGSLRLSCAVSRYSASNNVIKWMGWFRQAPGKEREGVAALYTSGGNTYYADSVKGRFTISRDYSENTVSLQMNNLKPEDTGMYYCAATVGTVLAGPLSARKYNYWGQGTQVTVSS
notes: pMECS-expressed; also called VHH numbered 142
Consider B9, for which the binding result in assay [1] is recorded as “binds”.

B10: SEQ ID NO 147 (VHH)
VHH: QVQLQESGGGSVQAGGSLRLSCAASGYTSRPNFMVWFRQAPGKEREAVAGIYTVTGGTLYSDPVKGRFTISQDKAKNTVYLQMNSLNPEDTAMYYCAVKWYGGSWSDAATFRTWGRGTQVTVSS
notes: pMECS-expressed; also called VHH numbered 147
In the case of B10, the binding result in assay [1] is “binds”.

B11: SEQ ID NO 144 (VHH)
VHH: QVQLQESGGGSVQAGQSLRLSCTASGYTDSRYCMGWFRQAPGKERERVTTIHTGTGITYYADSVKGRFSISQDNAQNTMYLQMNSLEPEDTAMYYCATTDYVYSASASWCNGYGVFNNWGQGTQVTVSS
notes: pMECS-expressed; also called VHH numbered 144
For B11, the binding result in assay [1] was “binds”.
